Assay results: patent US20110262438A1 (Ablynx, published 2011)

B1: 07C3 with Tag-1 (VHH)
VHH: EVQLVESGGGLVQAGESLTLSCAASGRTLSAYIMGWFRQAPGKEREFVAGIWSGGYTHLADSAKGRFSISRDNAKNTVYLQMNGLKPEDTAVYYCAAGLRGRQYSNWGQGTQVTVSS
B2: 07C3 with Tag-2 (VHH)
VHH: B1 VHH
notes: Purified monovalent Nanobody from E. coli (pAX100); also called 7CXCR07C3
B3: Mab 11G8 (R&D Systems) (antibody, V domains shown)
VH: EVKLVESGGDLVQPGGSLKLSCATSGFTFSDYYMFWVRQTPEKRLEWVAYITNGGDRSYYSDTVTGRFIISRDNAKNTLYLQMSRLKSEDTAMYYCARQGNWAAWFVYWGQGTLVTVSA
VL: DVLMTQTPLSLPVSLGDQASISCRSSHYIVHSDGNTYLEWYLQKPGQSPKLLIYKVSNRFSGVPDRFSGSGSGTDFTLKISRVEAEDLGIYYCFQGSHVPLTFGAGTKLELKR
B4: 08A10 with Tag-1 (VHH)
VHH: EVQLVESGGGLVQAGGSLRLSCAASGSIFSIAAMGWYRQATGKQRELVATITDGGTTTYADSVKGRVTISRDRSANTVYLAMNNLKPDDTAVYYCYAYLRYTSRVPGDNYWGQGTQVTVSS
B5: 08A10 with Tag-2 (VHH)
VHH: B4 VHH
notes: Purified monovalent Nanobody from E. coli (pAX100)
B6: 07B11 with Tag-1 (VHH)
VHH: EVQLVESGGNLVQAGGSLGLSCAASVSISSIHIMGWYRQAPGKQRDLVATITSGGSTAYADSVKGRFTVSKDNAKNTVYLQMDSLKPEDTSVYYCAAEVRNGVFGKWNHYWGQGTQVTVSS
B7: 07B11 with Tag-2 (VHH)
VHH: B6 VHH
notes: Purified monovalent Nanobody from E. coli (pAX100); also called 707B11
B8: 08A5 with Tag-1 (VHH)
VHH: EVQLVESGGGLVQAGDSLRLSCAASGLTFSNYDMGWFRQAPGKEREFVGASWWSGGAPYYSDSVKGRFTISRDNAKNTVYLQANSLRPEDTAVYYCAAKRLRSFASGGSYDYWGQGTQVTVSS
B9: 08A5 with Tag-2 (VHH)
VHH: B8 VHH
notes: as for B5

What was measured:
Human CXCR7 [1] = target: T1, Human CXCR7 (human, UniProt P25106 1-362); assay: competition FACS, 4 nM biotinylated SDF1 on HEK-hCXCR7 cells
T1 construct: also called hCXCR7; CXCR7-LP
Protocol: The potency of Nanobody 7CXCR07C3 and Mab 8F11 (Biolegend) to compete with SDF1 was evaluated in competition FACS with HEK-hCXCR7 cells. Cells were incubated simultaneously with 4 nM biotinylated SDF1 (R&D) and with diluted test molecules, for 2 h at 4° C. Binding of biotinylated SDF1 was detected using streptavidin-PE. Competition curves are depicted in FIG. 1.

Human CXCR7 [2] = target: T1, Human CXCR7; assay: displacement of 75 pM [125I]-CXCL12 from NIH3T3-hCXCR7 cells
Protocol: In order to assess the competition capacity, Nanobodies were evaluated in SDF1 ligand displacement assays using stable NIH3T3-hCXCR7 cells. 24 h after seeding the cells, the cells were pre-incubated for 1 h at 4° C. with a dilution series of purified monovalent Nanobodies and the corresponding C-terminal Tag-2 tagged fusion proteins to the human serum albumin binding Nanobody Alb8 (see Table B-4: SEQ ID NOs: 44 to 48 wherein the polypeptides are all C-terminal tagged with Tag-2). Also reference molecules Mab 8F11 (Biolegend), Mab 11G8 (R&D) and unlabelled SDF1 were included in the assay. Radiolabeled [¹²⁵I]-CXCL12 was diluted and added to the cells to reach a final concentration of 75 pM and cells were incubated for 3 h at 4° C. After incubation, cells were washed twice, lysed with RIPA buffer and the ¹²⁵I signal was measured. The competition of tested Nanobodies and 8F11 Mab is between 73 and 83%, relative to competition with unlabelled SDF1. This level of displacement correspond to a 100% blocking of the CXCR7 protein, as the remaining SDF-1 binding is believed not to be CXCR7 mediated, but due to the SDF-1 interaction with heparan sulfate proteoglycans. Fusion to the human serum albumin-binding Nanobody Alb8 has no significant effect on Ki values.

Human CXCR7 [3] = target: T1, Human CXCR7; assay: FACS, ratio of Hek293 hCXCR7 signal over control cells
Protocol: Clones representing distinct Nanobody B-cell lineages were tested as periplasmic extracts for their binding to cell surface exposed CXCR7. In this assay, 5-fold dilutions of periplasmic extract were incubated with Hek293 hCXCR7 and Hek293 wt cells. Binding of the Nanobodies was detected using mouse anti-myc (Serotec), followed by anti-mouse IgG-PE (Jackson Immununoresearch). Binding signals of selected Nanobody clones (mcf values and ratios of binding) are represented in Table B-8 and indicate that the Nanobodies do bind to cellular human CXCR7.

T1 sequence (P25106 whole entry): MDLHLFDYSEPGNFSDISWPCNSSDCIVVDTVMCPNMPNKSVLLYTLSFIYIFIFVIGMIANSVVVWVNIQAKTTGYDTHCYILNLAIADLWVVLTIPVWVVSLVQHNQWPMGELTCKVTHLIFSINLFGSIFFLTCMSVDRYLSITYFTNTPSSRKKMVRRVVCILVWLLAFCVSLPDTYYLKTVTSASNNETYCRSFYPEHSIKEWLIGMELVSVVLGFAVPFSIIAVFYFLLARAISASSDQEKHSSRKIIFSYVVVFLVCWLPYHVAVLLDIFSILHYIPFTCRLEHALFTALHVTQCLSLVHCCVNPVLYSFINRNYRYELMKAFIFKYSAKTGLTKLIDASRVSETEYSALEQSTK

Molecule	competition (% relative to unlabelled SDF1) (Human CXCR7 [1]) [%]	displacement (% relative to cold SDF1) (Human CXCR7 [2]) [%]	Fod Hek CXCR7/CXCR4 (Human CXCR7 [3]) [fold]
Mab 8F11 (Biolegend) (antibody)	> 95	73	
B1			73.2
B2	> 95	78	
B3		24	
B4			85.1
B5		75	
B6			110
B7		75	
B8			60.1
B9		77	
